Read-outs that look alike come from different tables or passages of the source.

The text below walks through data of patent US7429481.

Assay [1] has as its target human Her2/neu receptor (human) (UniProt P04626).
For assay [2] the target is unchanged. Briefly: flow cytometry, SKBR3 cells stained with Herceptin. For orientation: In flow cytometry, cells or beads pass a laser one at a time.

For “Herceptin, the humanized form of 4D5 (antibody)”, the mean fluorescence in assay [1] was 186; in assay [2], 401.
